Test results taken from PMC3079743.

System: TRF2DBD+L
Assay: differential centrifugation
Conditions: self-association; agarose gel binding detected at 10-fold lower concentration; EMSA buffer composition not in the material (AFM incubations: without Mg2+ and KCl, 30 min, room temperature); strand insertion assay: 50 mM HEPES, 100 mM …

“pRST5 2 kb telomeric fragment, histone-free (Tel DNA)” was tested, and the binding signal (% sedimented at up to 1 uM) was 20.
